Here are results for 13 molecules from US11111295 (CAFA THERAPEUTICS, dated 2021).

Usually EC50 stands for the concentration needed to bring the measured effect to its halfway point. A higher EC50 goes with lower potency in that assay.

Sequences and labels used below:
T1: human claudin 18A1 (CLD18A1) (human, UniProt P56856 1-261)
T1 construct: also called CLD18.1; claudin 18 splice variant 1
T1 sequence: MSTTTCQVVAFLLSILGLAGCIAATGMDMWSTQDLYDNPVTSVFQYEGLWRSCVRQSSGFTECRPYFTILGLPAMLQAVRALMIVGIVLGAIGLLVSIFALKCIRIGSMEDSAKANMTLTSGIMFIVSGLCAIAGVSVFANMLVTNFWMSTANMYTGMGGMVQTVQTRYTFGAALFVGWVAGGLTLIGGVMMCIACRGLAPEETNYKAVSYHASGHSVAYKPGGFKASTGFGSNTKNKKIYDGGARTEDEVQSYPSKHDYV

B1: murine monoclonal antibody 2B1 (hybridoma supernatant) (antibody, V domains shown)
VH: QVQLQQSGAELARPGASVKMSCKASGYTFTSYTMHWVKQRPGQGLEWIGYINPSSGYTNYNQKFKDKATLTADKSSSTAYMQLSSLTSEDSAVYYCARIYYGNSFAYWGQGTTVTVSS
VL: DIVMTQSPSSLTVTAGEKVTMSCKSSQSLLNSGNQKNYLTWYQQKPGQPPKLLIYWASTRESGVPDRFTGSGSGTDFTLTISSVQAEDLAVYYCQNDYSYPLTFGAGTKLELKR
notes: Mouse hybridoma antibody tested as supernatant
B2: murine monoclonal antibody 4A11 (hybridoma supernatant) (antibody, V domains shown)
VH: QIQLVQSGPELKKPGETVKISCKASGYTFTNYGMNWVKQAPGKGLKWMGWINTNTGEPTYAEEFKGRFAFSLETSASTAYLQINNLKNEDTATYFCARFSYGNSFAYWGQGTTVTVSS
VL: B1 VL with T12S, T14S, T40A, W56G, Y98H
notes: Mouse hybridoma antibody tested as supernatant; the latter is used
B3: murine monoclonal antibody 3E12 (hybridoma supernatant) (antibody, V domains shown)
VH: QVQLQQSGPELVKPGALVKISCKASGYTFTSYDINWVKQRPGQGLEWIGWIYPGDGSTKYNEKFKGKATLTADKSSSTAYMQLSSLTSENSAVYFCARGGYRYDEAMDYWGQGTTVTVSS
VL: QIVLTQSPAIMSASPGEKVTMTCSASSSISYMHWYQQKPGTSPKRWIYDTSKLASGVPARFSGSGSGTSYSLTISSMEAEDAATYYCHQRSSYPYTFGGGTKLEIKR
notes: as for B1
B4: murine monoclonal antibody 8E5 (hybridoma supernatant) (antibody, V domains shown)
VH: DVQLQESGPDLVKPSQSLSLTCTVTGYSITSGYNWHWIRQFPGNKMEWMGYIHYTGSTNYNPSLRSRISITRDTSKNQFFLQLNSVTTDDTATYYCTRIYNGNSFPYWGQGTSVTVSS
VL: DIVMTQSPSSLTVTPGEKVTMTCKSSQSLFNSGNQKNYLTWYQQRPGQPPKMLIYWASTRESGVPDRFTGSGSGTDFTLTISSVQAEDLAVFYCQNAYSFPYTFGGGTKLEIKR
notes: as for B1
B5: humanized antibody hu2B1-S54A (full antibody) (antibody, human IgG1, kappa, V domains shown)
VH: QVQLVQSGAEVKKPGASVKVSCKASGYTFTSYTMHWVRQAPGQGLEWMGYINPASGYTNYNQKFKDRVTMTRDTSTSTAYMELSSLRSEDTAVYYCARIYYGNSFAYWGQGTLVTVSS
VL: DIVMTQSPDSLAVSLGERATINCKSSQSLLNSGNQKNYLTWYQQKPGQPPKLLIYWASTRESGVPDRFSGSGSGTDFTLTISSLQAEDVAVYYCQNDYSYPLTFGGGTKVEIKR
B6: humanized antibody hu8E5-2I (full antibody) (antibody, human IgG1, kappa, V domains shown)
VH: QVQLQESGPGLIKPSQTLSLTCTVSGGSISSGYNWHWIRQPPGKGLEWIGYIHYTGSTNYNPALRSRVTISVDTSKNQFSLKLSSVTAADTAIYYCARIYNGNSFPYWGQGTTVTVSS
VL: B5 VL with L30F, D97A, Y100F, L102Y, V110L
B7: 8E5 scFv_Fc fusion antibody (scFv of 8E5 fused to human IgG1 Fc portion) (Fc fusion)
scFv: DVQLQESGPDLVKPSQSLSLTCTVTGYSITSGYNWHWIRQFPGNKMEWMGYIHYTGSTNYNPSLRSRISITRDTSKNQFFLQLNSVTTDDTATYYCTRIYNGNSFPYWGQGTSVTVSSGGGGSGGGGSGGGGSDIVMTQSPSSLTVTPGEKVTMTCKSSQSLFNSGNQKNYLTWYQQRPGQPPKMLIYWASTRESGVPDRFTGSGSGTDFTLTISSVQAEDLAVFYCQNAYSFPYTFGGGTKLEIKR
notes: also called parent antibody 8E5; not shown: human IgG1 Fc portion
B8: 2B1 scFv_Fc fusion antibody (scFv of 2B1 fused to human IgG1 Fc portion) (Fc fusion)
scFv: QVQLQQSGAELARPGASVKMSCKASGYTFTSYTMHWVKQRPGQGLEWIGYINPSSGYTNYNQKFKDKATLTADKSSSTAYMQLSSLTSEDSAVYYCARIYYGNSFAYWGQGTTVTVSSGGGGSGGGGSGGGGSDIVMTQSPSSLTVTAGEKVTMSCKSSQSLLNSGNQKNYLTWYQQKPGQPPKLLIYWASTRESGVPDRFTGSGSGTDFTLTISSVQAEDLAVYYCQNDYSYPLTFGAGTKLELKR
notes: also called murine anti-2B1 ScFv; not shown: human IgG1 Fc portion
B9: 2B1-S54A scFv_Fc fusion antibody (Fc fusion)
scFv: B8 scFv with S54A
notes: not shown: human IgG1 Fc portion
B10: 2B1-N52D scFv_Fc fusion antibody (Fc fusion)
scFv: B8 scFv with N52D
notes: as for B9
B11: hu8E5 scFv fused to human IgG1 Fc portion (Fc fusion)
scFv: QVQLQESGPGLVKPSQTLSLTCTVSGGSISSGYNWHWIRQPPGKGLEWIGYIHYTGSTNYNPALRSRVTISVDTSKNQFSLKLSSVTAADTAVYYCARIYNGNSFPYWGQGTTVTVSSGGGGSGGGGSGGGGSDIVMTQSPDSLAVSLGERATINCKSSQSLFNSGNQKNYLTWYQQKPGQPPKLLIYWASTRESGVPDRFSGSGSGTDFTLTISSLQAEDVAVYYCQNAYSFPYTFGGGTKLEIKR
notes: also called hu8E5-S62A; not shown: human IgG1 Fc portion
B12: hu8E5-2I scFv fused to human IgG1 Fc portion (Fc fusion)
scFv: B11 scFv with V12I, V93I
notes: also called mutant hu8E5-2I; not shown: human IgG1 Fc portion
B13: hu2B1-S54A scFv fused to human IgG1 Fc portion (Fc fusion)
scFv: QVQLVQSGAEVKKPGASVKVSCKASGYTFTSYTMHWVRQAPGQGLEWMGYINPASGYTNYNQKFKDRVTMTRDTSTSTAYMELSSLRSEDTAVYYCARIYYGNSFAYWGQGTLVTVSSGGGGSGGGGSGGGGSDIVMTQSPDSLAVSLGERATINCKSSQSLLNSGNQKNYLTWYQQKPGQPPKLLIYWASTRESGVPDRFSGSGSGTDFTLTISSLQAEDVAVYYCQNDYSYPLTFGGGTKVEIKR
notes: also called humanized hu2B1-S54A; not shown: human IgG1 Fc portion

Where a chain is given by its changes, count along the chain named. Names and notes keep the numbering of the source. Bounds are passed on as bounds.

One assay addresses T2, human claudin 18A2 (CLD18A2) (human).
T2 construct: also called CLD18.2; CLDN18A2
Nature of the assay: flow cytometry, hybridoma supernatant on HEK293-CLD18A2 against HEK293-CLD18A1. An excerpt: (§1) Individual cells were screened for anti-CLD18A2 monoclonal antibody by flow cytometry, and HEK293 cells (HEK-CLD18A2) stably expressing human CLD18A2 were used for primary screening by flow cytometry using a Guava easyCyte™ HT System instrument. The binding of the antibody to human CLD18A1 and CLD18A2 transformants was then compared by flow cytometry. The instrument used was the Guava easyCyte™ HT System.
(§2) After multiple rounds of preparation and screening of hybridomas, the inventors found several antibodies with relatively ideal binding properties.
A general note: In flow cytometry, cells or beads pass a laser one at a time.
Take B1: the “fold difference of average fluorescence intensity, CLD18A2 against CLD18A1 cells” value (from here on “fold difference”) was > 5 times.

Regarding B2, the “fold difference” value was > 5 times.

On to B3, for which the “fold difference” value was > 5 times.

In the case of B4, the “fold difference” value is > 5 times.

The next assay addresses T1, human claudin 18A1 (CLD18A1). Nature of the assay: flow cytometry, hybridoma supernatant on HEK293 cells stably transfected with human CLD18A1.
Source text: as §1, §2
Turning to B1, the binding result was “no binding”.

In the case of B2, the binding result is reported as “no binding”.

Regarding B3, the binding result is on record as “no binding”.

Regarding B4, the binding result is “no binding”.

In a further assay the target is T2, human claudin 18A2 (CLD18A2). Kind of assay: cell-based or functional assay.
Regarding B5, the “ADCC effect (LDH release), antibody 20 µg/ml, effector-to-target ratio 50:1” value is 62.8%.

In the case of B6, the “ADCC effect (LDH release), antibody 20 µg/ml, effector-to-target ratio 50:1” value is 72.9%.

The next assay shares this target. Nature of the assay: flow cytometry, scFv_Fc on HEK293 cells stably transfected with human CLD18A2. The procedure:
Binding of anti-Claudin 18A2 scFv_Fc fusion antibody to HEK293 cells stably transfected with CLD18A2 was determined by flow cytometry. Experimental data was analyzed using GraphPad Prism and Guava easyCyte™ HT System instrument as described in Example 1 to obtain EC50 value.
For B7, the EC50 amounted to 49.2 nM.

Take B8: the concentration for a half-maximal effect (EC50) is 3.56 nM.

Take B9: the EC50 was determined as 3.85 nM.

B10 registered a concentration for a half-maximal effect (EC50) of 6.11 nM.

Take B11: the 50% effective concentration (EC50) came out at 107 nM.

Turning to B12, the response was half-maximal at 9.22 nM (EC50) and the “fold increase of affinity against the parent antibody 8E5” value stood at 5 fold.

B13 gave an EC50 of 18.6 nM.
